# Reference: IntAct's records for PubMed 21572435
# B1: ETS translocation variant 1 (Homo sapiens), P50549-1 (parent)
# chain: MDGFYDQQVPYMVTNSQRGRNCNEKPTNVRKRKFINRDLAHDSEELFQDLSQLQETWLAEAQVPDNDEQFVPDYQAESLAFHGLPLKIKKEPHSPCSEISSACSQEQPFKFSYGEKCLYNVSAYDQKPQVGMRPSNPPTPSSTPVSPLHHASPNSTHTPKPDRAFPAHLPPSQSIPDSSYPMDHRFRRQLSEPCNSFPPLPTMPREGRPMYQRQMSEPNIPFPPQGFKQEYHDPVYEHNTMVGSAASQSFPPPLMIKQEPRDFAYDSEVPSCHSIYMRQEGFLAHPSRTEGCMFEKGPRQFYDDTCVVPEKFDGDIKQEPGMYREGPTYQRRGSLQLWQFLVALLDDPSNSHFIAWTGRGMEFKLIEPEEVARRWGIQKNRPAMNYDKLSRSLRYYYEKGIMQKVAGERYVYKFVCDPEALFSMAFPDNQRPLLKTDMERHINEEDTVPLSHFDESMAYMPEGGCCNPHPYNEGYVY
# Variants of: B1
# Conditions: with COP1, Q8NHY2-1
# COP1, Q8NHY2-1, sequence (Q8NHY2 whole entry): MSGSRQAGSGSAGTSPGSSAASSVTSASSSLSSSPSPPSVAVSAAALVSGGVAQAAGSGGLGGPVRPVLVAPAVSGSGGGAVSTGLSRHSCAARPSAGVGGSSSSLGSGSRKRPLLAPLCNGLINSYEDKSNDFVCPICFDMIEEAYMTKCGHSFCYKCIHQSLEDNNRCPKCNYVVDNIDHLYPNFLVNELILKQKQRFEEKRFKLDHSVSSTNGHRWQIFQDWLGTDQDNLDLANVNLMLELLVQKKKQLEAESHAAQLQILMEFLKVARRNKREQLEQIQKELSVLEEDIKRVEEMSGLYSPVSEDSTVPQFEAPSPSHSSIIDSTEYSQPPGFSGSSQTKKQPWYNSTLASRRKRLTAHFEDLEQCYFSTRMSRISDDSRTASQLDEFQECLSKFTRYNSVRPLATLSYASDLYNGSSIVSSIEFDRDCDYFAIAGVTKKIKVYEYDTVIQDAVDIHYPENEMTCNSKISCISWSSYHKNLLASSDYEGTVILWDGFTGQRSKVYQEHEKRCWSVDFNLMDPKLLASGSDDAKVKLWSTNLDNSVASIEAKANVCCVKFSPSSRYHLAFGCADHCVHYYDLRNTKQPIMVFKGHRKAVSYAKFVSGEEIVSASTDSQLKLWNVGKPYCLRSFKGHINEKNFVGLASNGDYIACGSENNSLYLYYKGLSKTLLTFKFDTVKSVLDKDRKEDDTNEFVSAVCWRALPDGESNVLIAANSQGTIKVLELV
row,effect of a mutation on the interaction,Variant
1,decreasing interaction,V63A;P64A;V71A;P72A
2,decreasing interaction,V71A;P72A
